Substitutions are numbered along the chain they refer to. Numbers in names are those of the source.
T1: PUF4 RNA-binding domain (Saccharomyces cerevisiae, UniProt P25339 537-888)
T1 sequence: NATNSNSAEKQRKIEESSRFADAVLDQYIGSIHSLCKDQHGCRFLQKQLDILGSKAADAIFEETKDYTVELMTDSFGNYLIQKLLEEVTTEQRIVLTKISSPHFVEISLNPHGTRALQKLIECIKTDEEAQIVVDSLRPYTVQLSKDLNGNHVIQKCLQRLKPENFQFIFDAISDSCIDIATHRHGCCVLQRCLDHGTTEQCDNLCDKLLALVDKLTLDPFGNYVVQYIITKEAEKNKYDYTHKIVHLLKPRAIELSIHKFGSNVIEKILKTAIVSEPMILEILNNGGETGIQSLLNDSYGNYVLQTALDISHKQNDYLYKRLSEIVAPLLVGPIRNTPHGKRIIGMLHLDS

B1: Ic_S2_P5E.1_K5.1_C5.1_H5.1_A5.1_[T5C]_[A7C]_F5.1_[T9C]_[A10T]_T5.1 (ssRNA)
RNA: UUUGAUUAAUAUGAUAUCGUUCUUUCUUGUACUCUCUUUCUUUCUCGAUAUCAUAUUAAUCUUU
B2: Ic_S2_P5E.1_K5.1_C5.1_H5.1_A5.1_[T5G]_F5.1_[T8A]_[A10T]_T5.1 (ssRNA)
RNA: B1 RNA with C32G, C34A, U35A, C36U
B3: Ic_S2_P5E.1_K5.1_C5.1_H5.1_A5.1_[T5C]_F5.1_[T8A]_[T9C]_[A10C]_T5.1 (ssRNA)
RNA: B1 RNA with C34A, U35A, U37C
B4: Ic_S2_P5E.1_K5.1_C5.1_H5.1_A5.1_[T5G]_[T6C]_[A7C]_F5.1_[T8C]_[T9A]_[A10T]_T5.1 (ssRNA)
RNA: B1 RNA with C32G, U33C, U35C, C36A
B5: Ic_S2_P5E.1_K5.1_C5.1_H5.1_A5.1_[T6G]_[A7T]_F5.1_[T8A]_[T9A]_T5.1 (ssRNA)
RNA: B1 RNA with C32U, U33G, C34U, U35A, C36A, U37A
B6: Ic_S2_P5E.1_K5.1_C5.1_H5.1_A5.1_[T6C]_F5.1_[T8G]_[T9C]_[A10C]_T5.1 (ssRNA)
RNA: B1 RNA with C32U, U33C, C34A, U35G, U37C
B7: Ic_S2_P5E.1_K5.1_C5.1_H5.1_A5.1_[T5G]_[A7C]_F5.1_[T9C]_[A10G]_T5.1 (ssRNA)
RNA: B1 RNA with C32G, U37G
B8: Ic_S2_P5E.1_K5.1_C5.1_H5.1_A5.1_[T5C]_[T6G]_[A7C]_F5.1_[T8C]_[T9C]_T5.1 (ssRNA)
RNA: B1 RNA with U33G, U35C, U37A
B9: Ic_S2_P5E.1_K5.1_C5.1_H5.1_A5.1_[T5A]_[T6A]_[A7T]_F5.1_[T9A]_T5.1 (ssRNA)
RNA: B1 RNA with C32A, U33A, C34U, C36A, U37A
B10: Ic_S4_P3E.1_K3.1_C3.1_H3.1_A3.1_[T5G]_[A6C]_F3.1_[T7G]_[A8G]_T3.1 (ssRNA)
RNA: UUUGACAACUGAUCGUUCUUUCUUGUAGCGGUUCUUUCUCGAUCAGUUGUCUUU
B11: Ic_S4_P3E.1_K3.1_C3.1_H3.1_A3.1_[T5G]_[A6C]_F3.1_[T7G]_[A8C]_T3.1 (ssRNA)
RNA: B10 RNA with G31C
B12: Ic_S4_P3E.1_K3.1_C3.1_H3.1_A3.1_[T5G]_[A6C]_F3.1_[T7C]_[A8C]_T3.1 (ssRNA)
RNA: B10 RNA with G30C, G31C
B13: Ic_S4_P3E.1_K3.1_C3.1_H3.1_A3.1_[T5G]_[A6C]_F3.1_[T7C]_T3.1 (ssRNA)
RNA: B10 RNA with G30C, G31A
B14: Ic_S4_P3E.1_K3.1_C3.1_H3.1_A3.1_[T5G]_[A6C]_F3.1_[T7A]_[A8G]_T3.1 (ssRNA)
RNA: B10 RNA with G30A
B15: Ic_S4_P3E.1_K3.1_C3.1_H3.1_A3.1_[T5G]_[A6C]_F3.1_[T7A]_[A8C]_T3.1 (ssRNA)
RNA: B10 RNA with G30A, G31C
B16: Ic_S4_P3E.1_K3.1_C3.1_H3.1_A3.1_[T5G]_[A6C]_F3.1_[T7A]_[A8T]_T3.1 (ssRNA)
RNA: B10 RNA with G30A, G31U
B17: Ic_S4_P3E.1_K3.1_C3.1_H3.1_A3.1_[T5G]_[A6C]_F3.1_[A8C]_T3.1 (ssRNA)
RNA: B10 RNA with G30U, G31C
B18: Ic_S4_P3E.1_K3.1_C3.1_H3.1_A3.1_[T5G]_[A6T]_F3.1_[T7G]_[A8C]_T3.1 (ssRNA)
RNA: B10 RNA with C29U, G31C
B19: Ic_S4_P3E.1_K3.1_C3.1_H3.1_A3.1_[T5G]_[A6T]_F3.1_[T7G]_[A8T]_T3.1 (ssRNA)
RNA: B10 RNA with C29U, G31U
B20: Ic_S4_P3E.1_K3.1_C3.1_H3.1_A3.1_[T5G]_[A6T]_F3.1_[T7A]_[A8C]_T3.1 (ssRNA)
RNA: B10 RNA with C29U, G30A, G31C
B21: Ic_S4_P3E.1_K3.1_C3.1_H3.1_A3.1_[T5G]_[A6T]_F3.1_[T7A]_[A8T]_T3.1 (ssRNA)
RNA: B10 RNA with C29U, G30A, G31U
B22: Ic_S4_P3E.1_K3.1_C3.1_H3.1_A3.1_[T5C]_[A6G]_F3.1_[T7G]_[A8C]_T3.1 (ssRNA)
RNA: B10 RNA with G28C, C29G, G31C
B23: Ic_S4_P3E.1_K3.1_C3.1_H3.1_A3.1_[T5C]_[A6G]_F3.1_[T7C]_[A8G]_T3.1 (ssRNA)
RNA: B10 RNA with G28C, C29G, G30C
B24: Ic_S4_P3E.1_K3.1_C3.1_H3.1_A3.1_[T5C]_[A6G]_F3.1_[T7C]_T3.1 (ssRNA)
RNA: B10 RNA with G28C, C29G, G30C, G31A
B25: Ic_S4_P3E.1_K3.1_C3.1_H3.1_A3.1_[T5C]_[A6C]_F3.1_[T7C]_[A8T]_T3.1 (ssRNA)
RNA: B10 RNA with G28C, G30C, G31U
B26: Ic_S4_P3E.1_K3.1_C3.1_H3.1_A3.1_[T5C]_[A6C]_F3.1_[T7C]_T3.1 (ssRNA)
RNA: B10 RNA with G28C, G30C, G31A
B27: Ic_S4_P3E.1_K3.1_C3.1_H3.1_A3.1_[T5C]_[A6C]_F3.1_[T7A]_[A8C]_T3.1 (ssRNA)
RNA: B10 RNA with G28C, G30A, G31C
B28: Ic_S4_P3E.1_K3.1_C3.1_H3.1_A3.1_[T5C]_[A6C]_F3.1_[T7A]_[A8T]_T3.1 (ssRNA)
RNA: B10 RNA with G28C, G30A, G31U
B29: Ic_S4_P3E.1_K3.1_C3.1_H3.1_A3.1_[T5C]_[A6C]_F3.1_[A8T]_T3.1 (ssRNA)
RNA: B10 RNA with G28C, G30U, G31U
B30: Ic_S4_P3E.1_K3.1_C3.1_H3.1_A3.1_[T5C]_[A6T]_F3.1_[T7G]_[A8G]_T3.1 (ssRNA)
RNA: B10 RNA with G28C, C29U
B31: Ic_S4_P3E.1_K3.1_C3.1_H3.1_A3.1_[T5C]_[A6T]_F3.1_[T7G]_[A8C]_T3.1 (ssRNA)
RNA: B10 RNA with G28C, C29U, G31C
B32: Ic_S4_P3E.1_K3.1_C3.1_H3.1_A3.1_[T5C]_[A6T]_F3.1_[T7C]_[A8C]_T3.1 (ssRNA)
RNA: B10 RNA with G28C, C29U, G30C, G31C
B33: Ic_S4_P3E.1_K3.1_C3.1_H3.1_A3.1_[T5C]_[A6T]_F3.1_[T7C]_[A8T]_T3.1 (ssRNA)
RNA: B10 RNA with G28C, C29U, G30C, G31U
B34: Ic_S4_P3E.1_K3.1_C3.1_H3.1_A3.1_[T5C]_[A6T]_F3.1_[T7C]_T3.1 (ssRNA)
RNA: B10 RNA with G28C, C29U, G30C, G31A
B35: Ic_S4_P3E.1_K3.1_C3.1_H3.1_A3.1_[T5C]_[A6T]_F3.1_[T7A]_[A8C]_T3.1 (ssRNA)
RNA: B10 RNA with G28C, C29U, G30A, G31C
B36: Ic_S4_P3E.1_K3.1_C3.1_H3.1_A3.1_[T5C]_[A6T]_F3.1_[T7A]_T3.1 (ssRNA)
RNA: B10 RNA with G28C, C29U, G30A, G31A
B37: Ic_S4_P3E.1_K3.1_C3.1_H3.1_A3.1_[T5C]_[A6T]_F3.1_[A8G]_T3.1 (ssRNA)
RNA: B10 RNA with G28C, C29U, G30U
B38: Ic_S4_P3E.1_K3.1_C3.1_H3.1_A3.1_[T5C]_[A6T]_F3.1_[A8T]_T3.1 (ssRNA)
RNA: B10 RNA with G28C, C29U, G30U, G31U
B39: Ic_S4_P3E.1_K3.1_C3.1_H3.1_A3.1_[T5C]_F3.1_[T7G]_[A8T]_T3.1 (ssRNA)
RNA: B10 RNA with G28C, C29A, G31U
B40: Ic_S4_P3E.1_K3.1_C3.1_H3.1_A3.1_[T5C]_F3.1_[T7C]_[A8C]_T3.1 (ssRNA)
RNA: B10 RNA with G28C, C29A, G30C, G31C

Target: T1, PUF4 RNA-binding domain
Experiment: Mg; RNA-MaP; 20 mM Na-HEPES pH 7.4, 30 mM KOAc, 0.75 mM MgCl2, 0.1% Tween-20, 5% glycerol, 0.1 mg/mL BSA, 2 mM DTT; 25 C; 0.0125-409.6 nM protein
Settings: tags: N-His6-TEV cleaved; C-SNAP kept, Cy3B-labelled; label: tethered on chip by stalled RNA polymerase

Row | Binder | Kd [nM]
1 | B1 | 13.5
2 | B2 | 342
3 | B3 | 228
4 | B4 | 819
5 | B5 | 53.7
6 | B6 | 389
7 | B7 | 706
8 | B8 | 558
9 | UCUCUUUAUAUAUUUUCUCUU (ssRNA) [Ib_S1_P4E.1_K4.1_C4.1_H4.1_[G2A]_A4.1_F4.1_[A9T]_T4.1] | 413
10 | B9 | 2.21
11 | B10 | 1270
12 | B11 | 1710
13 | B12 | 648
14 | B13 | 616
15 | B14 | 836
16 | B15 | 243
17 | B16 | 35.8
18 | B17 | 192
19 | B18 | 506
20 | UCUCUUUAUAUAUUAUCUCUU (ssRNA) [Ia_S1_P4E.1_K4.1_C4.1_H4.1_[G2A]_A4.1_F4.1_T4.1] | 14.1
21 | UCUCUUUGCAUAUUGUCUCUU (ssRNA) [Ib_S1_P4E.1_K4.1_C4.1_H4.1_[T3C]_A4.1_F4.1_[A9G]_T4.1] | 1840
22 | B19 | 100
23 | B20 | 404

Row | Binder | Kd [nM]
24 | B21 | 52.9
25 | B22 | 1030
26 | B23 | 908
27 | B24 | 444
28 | B25 | 14.2
29 | B26 | 487
30 | B27 | 79.7
31 | B28 | 5.15
32 | UCUCUUUGCAUAUUUUCUCUU (ssRNA) [Ib_S1_P4E.1_K4.1_C4.1_H4.1_[T3C]_A4.1_F4.1_[A9T]_T4.1] | > 2300
33 | B29 | 13.4
34 | B30 | 1840
35 | B31 | 442
36 | B32 | 120
37 | B33 | 12.3
38 | B34 | 108
39 | B35 | 89.8
40 | B36 | 46.5
41 | B37 | 103
42 | B38 | 10.1
43 | UCUCUUUGUGUAUUGUCUCUU (ssRNA) [Ib_S1_P4E.1_K4.1_C4.1_H4.1_[A4G]_A4.1_F4.1_[A9G]_T4.1] | 18.3
44 | B39 | 15.3
45 | B40 | 26.4
